# Assay results reported in paper PMC8834124, “Enzymatic Preparation of Gentiooligosaccharides by a Thermophilic and Thermostable β-Glucosidase at a High Substrate Concentration” (Foods, 2022).
# Legend:
# Test in all cases: purified protein
# Assay type in all cases: biochemical, Thermotoga sp. KOL6
# [1] = system: OC[C@H]1O[C@@H](O[C@H]2C(O)O[C@H](CO)[C@@H](O)[C@@H]2O)[C@H](O)[C@@H](O)[C@@H]1O
# [2] = system: OC[C@H]1O[C@@H](OC[C@H]2OC(O)[C@H](O)[C@@H](O)[C@@H]2O)[C@H](O)[C@@H](O)[C@@H]1O
# [3] = system: OC[C@H]1O[C@@H](O[C@H]2[C@H](O)[C@@H](CO)OC(O)[C@@H]2O)[C@H](O)[C@@H](O)[C@@H]1O
# [4] = system: O=[N+]([O-])c1ccc(O[C@@H]2O[C@H](CO)[C@@H](O)[C@H](O)[C@H]2O)cc1
substance,measurement,setting,value
β-glucosidase TsBgl1 (Thermotoga sp. KOL6),Km,[1],3950 µM
same,kcat,[1],218 s⁻¹
same,kcat/Km,[1],55300 M⁻¹ s⁻¹
same,Km,[2],3680 µM
same,kcat,[2],240 s⁻¹
same,kcat/Km,[2],65200 M⁻¹ s⁻¹
same,Km,[3],2170 µM
same,kcat,[3],295 s⁻¹
same,kcat/Km,[3],136000 M⁻¹ s⁻¹
same,Km,[4],240 µM
same,kcat,[4],124 s⁻¹
same,kcat/Km,[4],509000 M⁻¹ s⁻¹
